Source: US20260193348A1 (ANTENGENE BIOLOGICS, published 2026)
Like-named read-outs stand apart in the source and are kept apart here.

B1: JNJ-64407564 (bispecific antibody, V domains shown)
VH 1: QVQLVQSGAEVKKPGASVKVSCKASGYSFTGYTMNWVRQAPGQGLEWMGLINPYNSDTNYAQKLQGRVTMTTDTSTSTAYMELRSLRSDDTAVYYCARVALRVALDYWGQGTLVTVSS
VL 1: DIQMTQSPSSLSASVGDRVTITCKASQNVATHVGWYQQKPGKAPKRLIYSASYRYSGVPSRFSGSGSGTEFTLTISNLQPEDFATYYCQQYNRYPYTFGQGTKLEIK
VH 2: EVQLVESGGGLVQPGGSLRLSCAASGFTFNTYAMNWVRQAPGKGLEWVARIRSKYNNYATYYAASVKGRFTISRDDSKNSLYLQMNSLKTEDTAVYYCARHGNFGNSYVSWFAYWGQGTLVTVSS
VL 2: QTVVTQEPSLTVSPGGTVTLTCRSSTGAVTTSNYANWVQQKPGQAPRGLIGGTNKRAPGTPARFSGSLLGGKAALTLSGVQPEDEAEYYCALWYSNLWVFGGGTKLTVL
notes: construct per WO2018017786A2; also called benchmark antibody
B2: RG6234 (bispecific antibody, human IgG1, kappa, L234A L235A)
heavy 1: EVQLVESGGGLVQPGRSLKLSCAASGFSFSNYGMAWVRQAATKGLEWVASISTGGGNTYYRDSVKGRFIVSRDNAKNTQYLQMDSLRSEDTATYYCTRHDRGGLYWGQGVMVTVSSASTKGPSVFPLAPSSKSTSGGTAALGCLVEDYFPEPVTVSWNSGALTSGVHTFPAVLQSSGLYSLSSVVTVPSSSLGTQTYICNVNHKPSNTKVDEKVEPKSCDKTHTCPPCPAPEAAGGPSVFLFPPKPKDTLMISRTPEVTCVVVDVSHEDPEVKFNWYVDGVEVHNAKTKPREEQYNSTYRVVSVLTVLHQDWLNGKEYKCKVSNKALGAPIEKTISKAKGQPREPQVCTLPPSRDELTKNQVSLSCAVKGFYPSDIAVEWESNGQPENNYKTTPPVLDSDGSFFLVSKLTVDKSRWQQGNVFSCSVMHEALHNHYTQKSLSLSPGK
heavy 2: not shown
light 1: DIVMTQAPLSVSVTPGESASISCRSSKSLLHSNGITYVYWYFQKPGKSPQVLIYRMSNLASGVPDRFSGSGSETDFTLKISRVEAEDVGIYHCGQLLENPYTFGAGTELELKRTVAAPSVFIFPPSDRKLKSGTASVVCLLNNFYPREAKVQWKVDNALQSGNSQESVTEQDSKDSTYSLSSTLTLSKADYEKHKVYACEVTHQGLSSPVTKSFNRGEC
light 2: EVQLLESGGGLVQPGGSLRLSCAASGFTFSTYAMNWVRQAPGKGLEWVSRIRSKYNNYATYYADSVKGRFTISRDDSKNTLYLQMNSLRAEDTAVYYCVRHGNFGNSYVSWFAYWGQGTLVTVSSRTVAAPSVFIFPPSDEQLKSGTASVVCLLNNFYPREAKVQWKVDNALQSGNSQESVTEQDSKDSTYSLSSTLTLSKADYEKHKVYACEVTHQGLSSPVTKSFNRGEC
notes: construct per WO2019154890A1; also called benchmark antibody RG6234 (Roche)
B3: ATG-Bis-40E9 (bispecific antibody)
heavy: EVQLQQSGPELVKPGASVKMSCKASGYTFTSYVIHWVKQKTGQGLEWIGYFNPYNDGTKYNEEFKGKATLTSDKSSNTAYMELNSLTSDDSAVYFCARGGVRRYFDVWGAGTTVTVSS
heavy (part 1 of 2): B3 heavy
heavy (part 2 of 2): GGGGSGGGGSEVQLQLSGPELVKPGASVKMSCKASGYTFSSYVIHWVKQKPGQGLEWIGYINPYNDVIKYNEKFKGKATLTSDKSSSTAYMELSSLTSEDSAVYYCARDSYYSYDGFAYWGQGTLVTVSAGGGGSGGGGSGGGGSGGGGSQIVLTQSPAIMSASPGEKVTMTCSASSSVSYMHWYQQKSGTSPKRWIYDTSKLASGVPARFSGSGSGTSYSLTISSMEAEDAATYYCQQWSSNPPTFGGGTKVEIKGGGGSGGGGS
light: DIQMTQSPSSLSASLGERVSLTCRASQDIGSNLNWLQQEPDGTIKRLIYATFGLDSGVPKRFSGSRSGSDYSLTISSLESEDFVDYYCQQYASFPYTFGGGTKLEIK
notes: Fab-scFv-Fab (2+1) format: two anti-GPRC5D Fabs, one anti-CD3 scFv; LALA (L234A, L235A, EU); also called chimeric 2+1 bispecific antibody; 108C4C12 Fab x 40-C12-C10-E9 scFv; not shown: CH1; CL; CH2-CH3 with L234A, L235A; heavy chain constant region with L234A, L235A
B4: Bis-40E9-L2H3-Y54G.H (bispecific antibody)
heavy: EVQLVQSGAEVKKPGASVKVSCKASGYTFTSYVIHWVRQAPGQGLEWMGYFNPYNDGTKYNEEFKGRVTLTSDKSTSTAYMELRSLRSDDTAVYYCARGGVRRYFDVWGQGTTVTVSS
heavy (part 1 of 2): B4 heavy
heavy (part 2 of 2): GGGGSGGGGSEVQLVQSGAEVKKPGSSVKVSCKASGYTFSSYVIHWVRQAPGQCLEWMGYINPGNDVIKYNEKFKGRVTLTSDKSTSTAYMELSSLRSEDTAVYYCARDSYYSYDGFAYWGQGTLVTVSSGGGGSGGGGSGGGGSGGGGSEIVLTQSPDFQSVTPKEKVTITCSASSSVSYMHWYQQKPDQSPKRLIYDTSKLASGVPSRFSGSGSGTDFTLTINSLEAEDAATYYCQQWSSNPPTFGCGTKVEIKGGGGSGGGGS
light: DIQMTQSPSSLSASVGDRVTITCRASQDIGSNLNWLQQKPGKAIKRLIYATFGLDSGVPSRFSGSRSGTDFTLTISSLQPEDFATYYCQQYASFPYTFGGGTKVEIK
notes: Fab-scFv-Fab (2+1), LALA; not shown: CH1; CL; CH2-CH3 with L234A, L235A; heavy chain constant region with L234A, L235A

How the values were obtained:
[1] = target: T1, CD3 (Cluster of Differentiation 3 protein), human, on T cells / Jurkat cells (human, UniProt P07766 23-207; P04234 22-171; P09693 23-182); assay: FACS, Jurkat cells, antibody at 50 µg/ml
T1 construct: whole, on cells; part of the TCR-CD3 complex; also called human CD3
Method: (§1) The binding affinities of the generated humanized Fab-scFv-Fab bispecific antibodies were determined by FACS analysis. […] (a) Jurkat cells were washed by Staining Buffer (PBS+1% BSA) in round bottom 96-well plate. [0833] (b) Antibody dilutions and cells were added to each well, incubated at 4 degrees for 1 hour. [0834] (c) Cells were spined down at 300 g for 3 minutes, and the supernatants were discarded. [0835] (d) Cells were washed with Staining Buffer. […] (e) Step (d) was repeated and the cells were incubated for 0.5 hours at 4 degrees with secondary antibody in Staining Buffer. [0837] (f) After incubation, step (d)-(e) were repeated. […] (g) Staining Buffer was added and fluorescence signals were recorded by flow cytometry.

[2] = target: T1, CD3 (Cluster of Differentiation 3 …); assay: FACS, CD3+ T cells isolated from normal donors
Method: To evaluate the binding affinity of the generated chimeric bispecific antibody to T cells, the isolated CD3⁺ T cells were stained by antibodies and the binding affinity was determined by FACS analysis. The protocol of FACS analysis is described as follows: [0785] (a) CD3⁺ T cells were isolated from normal donors. [0786] (b) The isolated CD3⁺ T cells were washed by Staining Buffer (PBS+1% BSA) in round bottom 96-well plate. […] (c) Antibody dilutions were added to each well and mixed with the CD3+ T cells, incubated at 4 degrees for 1 hour. […] (d) Cells were spined at 300 g for 3 minutes, then the supernatants were discarded. [0789] (e) Cells were washed with Staining Buffer. [0790] (f) Step (d) was repeated, and the cells were incubated with secondary antibody in Staining Buffer for 0.5 hours at 4 degrees. [0791] (g) After incubation, step (d)-(e) were repeated. [0792] (h) Cells were resuspended in Staining Buffer and fluorescence signals were recorded by flow cytometry.

[3] = target: T2, GPRC5D (G-protein coupled receptor family C group 5 member D), human, on multiple myeloma cell lines (human, UniProt Q9NZD1 1-345); assay: cell-based or functional assay
[4] = target: T2, GPRC5D (G-protein coupled receptor …); assay: cell-based or functional assay; remark: listed apart in the source
[5] = target: T2, GPRC5D (G-protein coupled receptor …); assay: cell-based or functional assay; remark: listed apart in the source
[6] = target: T2, GPRC5D (G-protein coupled receptor …); assay: cell-based or functional assay; remark: listed apart in the source
[7] = target: T2, GPRC5D (G-protein coupled receptor …); assay: FACS, MOLP-8 cells
Method: as §1
(§2) The binding affinities of the generated humanized Fab-scFv-Fab bispecific antibodies to different multiple myeloma cell lines were evaluated by FACS analysis. The protocol for FACS analysis is identical to that described in Example 3.2, except that different cells were used in this example, i.e., multiple myeloma cell lines (MM.1S, […], L363 and RPMI 8226) were used in this example.

[8] = target: T2, GPRC5D (G-protein coupled receptor …); assay: FACS, MM.1S cells
Method: as §1, §2

T1 sequence (P07766 23-207, chain 1 of 3): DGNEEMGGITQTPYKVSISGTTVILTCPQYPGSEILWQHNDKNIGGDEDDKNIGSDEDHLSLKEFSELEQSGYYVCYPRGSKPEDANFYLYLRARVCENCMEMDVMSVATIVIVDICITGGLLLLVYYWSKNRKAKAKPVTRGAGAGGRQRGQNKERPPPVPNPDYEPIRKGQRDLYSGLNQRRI
T1 sequence (P04234 22-171, chain 2 of 3): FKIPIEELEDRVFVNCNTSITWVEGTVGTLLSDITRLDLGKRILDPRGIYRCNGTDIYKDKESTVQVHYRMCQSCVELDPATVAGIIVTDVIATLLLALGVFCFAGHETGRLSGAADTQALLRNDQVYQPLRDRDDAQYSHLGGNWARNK
T1 sequence (P09693 23-182, chain 3 of 3): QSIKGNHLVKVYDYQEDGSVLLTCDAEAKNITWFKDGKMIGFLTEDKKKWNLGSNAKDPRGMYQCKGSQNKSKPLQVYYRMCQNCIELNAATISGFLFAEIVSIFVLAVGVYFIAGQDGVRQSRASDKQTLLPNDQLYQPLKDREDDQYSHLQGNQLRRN
T2 sequence (Q9NZD1 whole entry): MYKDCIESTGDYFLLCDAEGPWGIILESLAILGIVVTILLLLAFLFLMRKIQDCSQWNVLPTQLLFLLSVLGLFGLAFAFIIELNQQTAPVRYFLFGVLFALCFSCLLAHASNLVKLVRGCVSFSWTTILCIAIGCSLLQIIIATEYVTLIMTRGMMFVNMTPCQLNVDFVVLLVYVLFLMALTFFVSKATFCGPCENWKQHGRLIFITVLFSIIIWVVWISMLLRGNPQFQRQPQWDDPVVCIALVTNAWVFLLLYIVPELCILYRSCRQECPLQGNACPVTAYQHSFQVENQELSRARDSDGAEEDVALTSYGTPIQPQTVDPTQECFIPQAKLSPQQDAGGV

Row | Binder | MFI (50 µg/ml) [1] | EC50 [2] | Top (MFI) [2] | IC50 (nM), T-Cell Dependent Cytotoxicity, L363 [3] | IC50 (nM), T-Cell Dependent Cytotoxicity, MM.1S [3] | IC50 (nM), T-Cell Dependent Cytotoxicity, MOLP-8 [3] | IC50 (nM), T-Cell Dependent Cytotoxicity, RPMI8226 [3] | IC50 (nM), T-Cell Dependent Cytotoxicity, MM.1S [4] | IC50 (nM), T-Cell Dependent Cytotoxicity, MOLP-8 [4] | IC50 (nM), T-Cell Dependent Cytotoxicity, RPMI8226 [4] | Top (%), T-Cell Dependent Cytotoxicity, MM.1S [4] | Top (%), T-Cell Dependent Cytotoxicity, MOLP-8 [4] | Top (%), T-Cell Dependent Cytotoxicity, RPMI8226 [4] | EC50 (nM), luciferase assay, L363 [5] | EC50 (nM), luciferase assay, MM.1S [5] | EC50 (nM), luciferase assay, MOLP-8 [5] | EC50 (nM), luciferase assay, RPMI8226 [5] | Top (RLU), luciferase assay, L363 [5] | Top (RLU), luciferase assay, MM.1S [5] | Top (RLU), luciferase assay, MOLP-8 [5] | also measured
1 | B1 | 1030 MFI | 11.4 nM | 534 MFI |  |  |  |  |  |  |  |  |  |  |  |  |  |  |  |  |  | 
2 | B2 | 836 MFI | 274 nM | 2550 MFI | 0.007 nM | 0.006 nM | 0.002 nM | 0.031 nM | 0.019 nM | 0.00599 nM | 0.0899 nM | 77.2% | 53.4% | 8.1% | 0.0532 nM | 0.0397 nM | 0.021 nM | 0.0929 nM | 1260 RLU | 3910 RLU | 1060 RLU | Top (RLU), luciferase assay, RPMI8226 [5]: 616 RLU; EC50 (nM), luciferase assay, L363 [6]: 44 nM; EC50 (nM), luciferase assay, MM.1S [6]: 0.334 nM; EC50 (nM), luciferase assay, MOLP-8 [6]: 0.756 nM; EC50 (nM), luciferase assay, RPMI8226 [6]: 0.047 nM
3 | B3 | 490 MFI | 287 nM | 1990 MFI | 0.001 nM | 0.002 nM | 0.001 nM | 0.009 nM | 0.00641 nM | 0.00607 nM | 0.0351 nM | 81.5% | 59% | 9% | 0.028 nM | 0.787 nM | 0.0186 nM | 0.117 nM | 1050 RLU | 3550 RLU | 826 RLU | EC50 [7]: 0.817 nM; Top (MFI) [7]: 958 MFI; EC50 [8]: 11.3 nM; Top (MFI) [8]: 1200 MFI; Top (RLU), luciferase assay, RPMI8226 [5]: 776 RLU; EC50 (nM), luciferase assay, L363 [6]: 69.4 nM; EC50 (nM), luciferase assay, MM.1S [6]: 0.739 nM; EC50 (nM), luciferase assay, MOLP-8 [6]: 0.374 nM; EC50 (nM), luciferase assay, RPMI8226 [6]: 0.071 nM
4 | B4 | 137 MFI |  |  |  |  |  |  | 0.00726 nM | 0.00117 nM | 0.0453 nM | 75.5% | 68.7% | 10.4% | 0.0525 nM | 0.0506 nM | 0.0455 nM |  | 776 RLU | 5840 RLU | 1060 RLU | EC50 [7]: 0.398 nM; Top (MFI) [7]: 952 MFI; EC50 [8]: 8.93 nM; Top (MFI) [8]: 1330 MFI
